Legend:
CCA1 [1] = target: T1, CCA1 (Arabidopsis thaliana, UniProt P92973 P92973:1-608); assay: EMSA; 10 fmol rCCA1 and 10 fmol probe; cold competitor 5-50x; conditions: tags: full-length cDNA in pET300/NT-DEST, E. coli Rosetta-gami B; label: 32P
Excerpt: (§1) The cDNA was cloned into pDONR221 and validated by sequencing. The resulting insert was transferred by recombination into pET300/NT-DEST expression vector (Invitrogen Corp., Carlsbad, Calif.) and expressed in Escherichia coli Rosetta-gami B competent cells (Novagen, Madison, Wis.). Recombinant CCA1 protein was purified and subjected to EMSA in 6% native polyacrylamide gels using rCCA1 (10 fmoles) and ³²P-labeled double-stranded oligonucleotides (10 fmoles, Table 5). The cold probe (Cp) concentrations were 0 (-), 50 (5×), 100 (10×), 200 (20×), and 500 (50×) fmoles, respectively, according to a published protocol available at http://www.natureprotocols.com/2009/01/08/the_electrophoretic_mobility_s_{—}1.php.

CCA1 [2] = target: T1, CCA1; assay: EMSA; 10 fmol rCCA1 and 10 fmol probe; cold competitor 5-50x; text prints PORE for PORB; conditions: tags: full-length cDNA in pET300/NT-DEST, E. coli Rosetta-gami B; label: 32P
Excerpt: as §1

T1 sequence (P92973 whole entry, one chain of several): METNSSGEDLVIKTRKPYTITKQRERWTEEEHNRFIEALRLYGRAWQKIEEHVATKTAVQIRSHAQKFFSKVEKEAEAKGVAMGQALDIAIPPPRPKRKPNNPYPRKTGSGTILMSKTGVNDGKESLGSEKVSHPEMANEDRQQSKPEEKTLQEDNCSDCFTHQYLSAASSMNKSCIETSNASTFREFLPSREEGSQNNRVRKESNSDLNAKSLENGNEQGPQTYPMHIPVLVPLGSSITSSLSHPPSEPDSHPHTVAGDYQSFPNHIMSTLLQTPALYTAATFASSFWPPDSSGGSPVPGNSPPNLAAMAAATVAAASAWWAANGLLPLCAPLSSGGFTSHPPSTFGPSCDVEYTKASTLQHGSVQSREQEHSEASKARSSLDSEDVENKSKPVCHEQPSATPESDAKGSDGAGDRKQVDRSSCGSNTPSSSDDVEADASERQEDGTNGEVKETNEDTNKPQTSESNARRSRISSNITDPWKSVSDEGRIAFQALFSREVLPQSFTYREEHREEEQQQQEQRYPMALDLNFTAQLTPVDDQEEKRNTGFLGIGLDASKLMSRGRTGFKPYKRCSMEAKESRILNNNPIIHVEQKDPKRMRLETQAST

B1: PORA promoter EE oligo (dsDNA)
DNA 1: TATACATTAAAATATCTACTGACAG
DNA 2: CTGTCAGTAGATATTTTAATGTATA
CCA1 [1]
  binding result: binds

B2: GWD3 promoter EE oligo (dsDNA)
DNA 1: CACAAACAAAAAAATCTCTTATCAC
DNA 2: GTGATAAGAGATTTTTTTGTTTGTG
CCA1 [1]
  binding result: binds

B3: PORB promoter EE oligo (dsDNA)
DNA 1: ATTAAAATAAAATATCTAAGGAGAA
DNA 2: TTCTCCTTAGATATTTTATTTTAAT
CCA1 [2]
  binding result: binds

B4: TOC1 promoter EE oligo (dsDNA)
DNA 1: ACACAAAAAAAATATCTAATCACAG
DNA 2: CTGTGATTAGATATTTTTTTTGTGT
CCA1 [1]
  binding result: binds

B5: DPE1 promoter EE oligo (dsDNA)
DNA 1: AGAGCAACAAAATATCTCGACTGTT
DNA 2: AACAGTCGAGATATTTTGTTGCTCT
CCA1 [1]
  binding result: binds

From US20110271397, “MOLECULAR CLOCK MECHANISM OF HYBRID VIGOR” (published 2011)
